Data: patent US20220184120A1

Target: full-length MUC1 expressed on HCT-116 cells (cleavage resistant single cell clone) (Homo sapiens (Human)) (UniProt P15941)
Assay: flow cytometry, HCT-MUC1-41TR cells (FIG. 36D)

percent positive cells: 95%
Substance: VU4H5 commercially available mouse monoclonal anti-MUC1 tandem repeat antibody
